Results on one molecule are retold here after PMC3317930, “A Human PrM Antibody That Recognizes a Novel Cryptic Epitope on Dengue E Glycoprotein” (PLoS ONE, 2012).

One experiment concerns the target prM protein of DENV3 (Dengue virus 3, strain H87, UniProt P27915). Put plainly: Western blot. Conditions: one partner purified. A general note: Immunoblotting shows a protein as a band on a membrane.
In experiment [1] the target is T1, envelope (E) protein of DENV3 (Dengue virus 3, strain H87, UniProt P27915).
T1 construct: also called E glycoprotein; source: DENV3-infected Vero cells, in lysate
Put plainly: Western blot. Conditions: one partner purified.

Experiment [2] has as its target T2, envelope (E) protein of DENV4 (Dengue virus 4, strain H241, UniProt Q58HT7).
T2 construct: also called E glycoprotein; source: DENV4-infected Vero cells, in lysate
The experiment can be described thus: Western blot. Conditions: one partner purified.

Experiment [3] has as its target T3, prM protein of the non-mutated prM-E construct (pCMV-prM-E) (Dengue virus 2 strain New Guinea C, UniProt P14340).
T3 construct: also called prM of pCMV-prM-E; source: HEK293-T cells, transfected, in lysate
Put plainly: Western blot. The following applies: one partner purified.

Experiment [4] has as its target Dengue 2 (DENV2), whole virus (Dengue virus 2, strain New Guinea C (or …, UniProt P14340, strain)). The experiment can be described thus: ELISA. The following applies: both partners purified. In general terms: An ELISA detects its analyte on a solid surface through an enzyme-linked reagent.
For experiment [5], the target named is Dengue 3 (DENV3) strain H87, whole virus (Dengue virus 3, strain H87, UniProt P27915, strain). The experiment can be described thus: ELISA. Conditions: both partners purified.
In experiment [6] the target is Dengue 4 (DENV4) strain H241, whole virus (Dengue virus 4, strain H241, UniProt Q58HT7, strain). Put plainly: ELISA. The following applies: both partners purified.
Experiment [7] deals with Dengue 1 (DENV1) strain Hawaii, whole virus (Dengue virus 1, strain Hawaii, UniProt B5AGU1, strain). The experiment can be described thus: ELISA. Conditions: both partners purified.

B1: D29 Fab-IgG (antibody, V domains shown)
VH: QMQLVQSGGGVVQPGRSLRLSCAASGFTFSSYAMHWVRQAPGKGLEWVAGTSYDGSNKYYADSVKGRFTISGDNSKNTVYLQMNSLRAEDTAVYYCARAHSSGWYDAFDIWGQGTTVTVSS
VL: SYVLTQPPSVSVSPGQAASITCSGDKLGDKYAWWYQQKPGQSPVMVIHQDDKRPSGIPERFSGSNSGNTATLTITGTQAMDEADYYCQAWDRTTVVFGGGTKLTVL
notes: source: HEK 293 T cells (Fab from a non-immunized human Fab phage library, converted into human IgG format)
By Kd is commonly meant the equilibrium constant for the complex coming apart. The low end stands for higher affinity, the high end for lower affinity. Consider B1, for which the binding result (with prM protein of DENV3; in experiment [1]; in experiment [2]; in experiment [3]) was “binds” in each case. In addition, the equilibrium dissociation constant (Kd) in experiment [4] worked out at 86.9 pM; in experiment [5], 114 pM; in experiment [6] it was 108 pM; in experiment [7], 90.5 pM.
